“And” between values parts separate entries of the source, which are not always exact repeats. Equal entries are not always repeated.

Stoichiometry N data for 1 substance are collected here from paper PMC3229572.

This test concerns the target recombinant full length M2 protein of influenza virus A/Hong Kong/8/68 (H3N2) (influenza A virus A/Hong Kong/8/68 (H3N2)).

For “recombinant full length M2 protein of influenza virus A/Hong Kong/8/68 (H3N2) (natural protein)”, the stoichiometry N (in general, a count of units in the complex or per binding partner) is 4 and 8.
